Data: patent publication EP3464323B1
No end group written: not given here.

Molecular target: CY5-CAS9:sgRNA complex (1:1 molar ratio) (S. pyogenes), Q99ZW2
Assay: fluorescence titration; 5 nM CY5-CAS9:sgRNA (1:1) titrated with peptide, quadratic fit
Conditions: remark: other sources report otherwise

Sequence of CY5-CAS9:sgRNA complex (1:1 molar ratio) (S. pyogenes), Q99ZW2 (Q99ZW2 whole entry, one chain of several): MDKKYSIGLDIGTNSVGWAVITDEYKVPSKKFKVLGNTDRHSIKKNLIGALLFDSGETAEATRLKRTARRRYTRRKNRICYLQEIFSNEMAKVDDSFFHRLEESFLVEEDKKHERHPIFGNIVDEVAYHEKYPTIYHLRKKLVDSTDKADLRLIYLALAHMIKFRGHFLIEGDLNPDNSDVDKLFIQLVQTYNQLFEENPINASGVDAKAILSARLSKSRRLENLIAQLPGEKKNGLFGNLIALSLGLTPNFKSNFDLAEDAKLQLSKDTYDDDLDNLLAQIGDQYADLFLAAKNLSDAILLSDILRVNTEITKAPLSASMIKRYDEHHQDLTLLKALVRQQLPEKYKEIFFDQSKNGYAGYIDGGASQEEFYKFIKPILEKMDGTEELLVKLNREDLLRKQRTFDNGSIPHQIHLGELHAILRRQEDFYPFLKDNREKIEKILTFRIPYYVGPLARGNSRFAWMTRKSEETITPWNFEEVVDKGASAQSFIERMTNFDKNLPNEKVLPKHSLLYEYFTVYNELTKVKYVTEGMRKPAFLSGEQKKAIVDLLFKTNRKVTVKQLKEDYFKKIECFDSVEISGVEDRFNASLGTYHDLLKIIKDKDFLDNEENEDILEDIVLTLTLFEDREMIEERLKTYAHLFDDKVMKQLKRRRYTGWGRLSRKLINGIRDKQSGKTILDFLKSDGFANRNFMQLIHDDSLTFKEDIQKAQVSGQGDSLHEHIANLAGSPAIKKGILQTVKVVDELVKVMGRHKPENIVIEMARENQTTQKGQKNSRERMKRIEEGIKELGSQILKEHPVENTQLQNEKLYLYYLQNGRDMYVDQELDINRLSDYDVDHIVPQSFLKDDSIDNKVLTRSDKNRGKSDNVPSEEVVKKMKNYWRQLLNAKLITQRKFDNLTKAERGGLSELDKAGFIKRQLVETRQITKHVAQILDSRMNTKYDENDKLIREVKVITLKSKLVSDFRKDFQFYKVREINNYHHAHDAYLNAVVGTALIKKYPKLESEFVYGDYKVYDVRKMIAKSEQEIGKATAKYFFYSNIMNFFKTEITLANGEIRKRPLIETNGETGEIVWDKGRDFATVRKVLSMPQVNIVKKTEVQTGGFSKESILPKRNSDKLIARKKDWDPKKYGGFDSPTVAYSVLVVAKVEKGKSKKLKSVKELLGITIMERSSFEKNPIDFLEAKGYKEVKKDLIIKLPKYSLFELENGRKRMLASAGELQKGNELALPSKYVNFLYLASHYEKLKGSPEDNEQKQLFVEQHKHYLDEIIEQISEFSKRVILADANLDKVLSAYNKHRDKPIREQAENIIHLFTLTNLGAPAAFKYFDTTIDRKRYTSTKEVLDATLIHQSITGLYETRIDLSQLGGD

GLWRALWRLLRSLWRLLWKV (also: acetate salt) [CADY]
Kd: 21 nM
